Test results as given in US20260151494A1 (ARO BIOTHERAPEUTICS, published 2026).
Numbering of substitutions follows the chain as printed.

B1: CD71-binding FN3 domain of SEQ ID NO: 142 (designed binder)
chain: MSLPAPKNLVVSRVTEDSARLSWTASDAAFDSFHIWYFEKANEGEAIPLVVPGSERSYDLTGLKPGTEYDVDIGGVKGGAWSIPLGARFTT
B2: CD71-binding FN3 domain of SEQ ID NO: 178 (designed binder)
chain: MGSLPAPKNLVVSRVTEDSARLSWTAPDAAFDSFFIGYLEPQPPGEAISLYVPGSERSYDLTGLKPGTEYNVTIQGVKGGFPSDPLVAHFTT
B3: CD71-binding FN3 domain of SEQ ID NO: 135 (designed binder)
chain: MSLPAPKNLVVSRVTEDSARLSWTAPDAAFDSFFIGYLEPQSPGEAIALYVPGSERSYDLTGLKPGTEYNVTIQGVKGGFPSEPLIANFTT
B4: CD71-binding FN3 domain of SEQ ID NO: 161 (designed binder)
chain: B3 chain with S42P, A48V, Y50T, I86V, N88H
B5: CD71-binding FN3 domain of SEQ ID NO: 197 (designed binder)
chain: B3 chain with S42P, A48S, Y50L, I86H, N88I
B6: CD71-binding FN3 domain of SEQ ID NO: 179 (designed binder)
chain: B3 chain with S42P, A48T, Y50L, E83H, I86V, N88T, F89T
B7: CD71-binding FN3 domain of SEQ ID NO: 137 (designed binder)
chain: B3 chain with S42P, A48T, E83D, I86V, N88H
B8: CD71-binding FN3 domain of SEQ ID NO: 147 (designed binder)
chain: B3 chain with S42P, A48E, Y50F, E83G, N88S
B9: CD71-binding FN3 domain of SEQ ID NO: 167 (designed binder)
chain: B3 chain with S42P, A48V, Y50T, E83V, I86S, N88A
B10: CD71-binding FN3 domain of SEQ ID NO: 145 (designed binder)
chain: B3 chain with S42P, Y50L, E83H, I86S, N88K
B11: CD71-binding FN3 domain of SEQ ID NO: 138 (designed binder)
chain: B3 chain with S42P, A46V, A48H, Y50F, E83M, I86S, N88I
B12: CD71-binding FN3 domain of SEQ ID NO: 180 (designed binder)
chain: B3 chain with S42P, A48S
B13: CD71-binding FN3 domain of SEQ ID NO: 140 (designed binder)
chain: B3 chain with S42P, A48H, E83M, I86S, N88I
B14: CD71-binding FN3 domain of SEQ ID NO: 168 (designed binder)
chain: B3 chain with F34I, S42P, G44D, E83L, I86V, N88T
B15: CD71-binding FN3 domain of SEQ ID NO: 136 (designed binder)
chain: MSLPAPKNLVVSRVTEDSARLSWTAPDAAFDSFEIDYVEFIFTGEAIGLIVPGSERSYDLTGLKPGTEYWVTIAGVKGGEWSTPLQAFLTT
B16: CD71-binding FN3 domain of SEQ ID NO: 198 (designed binder)
chain: MSLPAPKNLVVSRVTEDSARLSWTAPDAAFDSFLIGYTEYSVYGEAIVLTVPGSERSYDLTGLKPGTEYTVWIMGVKGGIKSTPLSAISTT
B17: CD71-binding FN3 domain of SEQ ID NO: 134 (designed binder)
chain: MSLPAPKNLVVSRVTEDSARLSWTAPDAAFDSFDINYWENESGGEAIALFVPGSERSYDLTGLKPGTEYLVTIAGVKGGWWSKPLYATFTT
B18: CD71-binding FN3 domain of SEQ ID NO: 163 (designed binder)
chain: MSLPAPKNLVVSRVTEDSARLSWTAPDAAFDSFFIGYLEPQPPGEVIHLYVPGSERSYDLTGLKPGTEYVVFIGGVKGGVWSVPLSAIFTT
B19: CD71-binding FN3 domain of SEQ ID NO: 218 (designed binder)
chain: MSLPAPKNLVVSRVTEDSARLSWTAPDAAFDSFEIAYHEDDFYGEAIALLVPGSERSYDLTGLKPGTEYIVHIGGVKGGFFSSPLYAWFTT
B20: CD71-binding FN3 domain of SEQ ID NO: 204 (designed binder)
chain: MSLPAPKNLVVSRVTEDSARLSWTAPDAAFDSFLIQYDEWPTYGEAIVLTVPGSERSYDLTGLKPGTEYLVEIVGVKGGNLSGPLSAIFTT
B21: CD71-binding FN3 domain of SEQ ID NO: 143 (designed binder)
chain: MSLPAPKNLVVSRVTEDSARLSWTAPDAAFDSFAIQYVEVIGSGEAIELIVPGSERSYDLTGLKPGTEYHVYIDGVKGGKDSKPLYAGFTT
B22: CD71-binding FN3 domain of SEQ ID NO: 162 (designed binder)
chain: MSLPAPKNLVVSRVTEDSARLSWTALDAAFDSFEISYWEHTFNGEAIILFVPGSERSYDLTGLKPGTEYYVTIGGVKGGAWSPPLWAEFTT
B23: CD71-binding FN3 domain SEQ ID NO: 235 (designed binder)
chain: MSLPAPKNLVVSRVTEDSARLSWTAPDAAFDSFEIVYAEPVRFGEAIVLTVPGSERSYDLTGLKPGTEYWVQIGGVKGGNWSAPLSAIFTT
B24: CD71-binding FN3 domain SEQ ID NO: 237 (designed binder)
chain: B23 chain with V36A, A38F, P40R, V41T, R42W, N80D, A83K
B25: CD71-binding FN3 domain SEQ ID NO: 236 (designed binder)
chain: B23 chain with A25E, V36G, A38F, P40N, V41L, R42Y, F43L

What follows are binders tested against T1, human CD71 extracellular domain (human, UniProt P02786 89-760) (assay: primary ELISA, signal ratio to HSA).
T1 construct: also called hCD71; human CD71-ECD
Throughout, for RLU: test concentration or dose not given here.

T1 sequence (P02786 89-760): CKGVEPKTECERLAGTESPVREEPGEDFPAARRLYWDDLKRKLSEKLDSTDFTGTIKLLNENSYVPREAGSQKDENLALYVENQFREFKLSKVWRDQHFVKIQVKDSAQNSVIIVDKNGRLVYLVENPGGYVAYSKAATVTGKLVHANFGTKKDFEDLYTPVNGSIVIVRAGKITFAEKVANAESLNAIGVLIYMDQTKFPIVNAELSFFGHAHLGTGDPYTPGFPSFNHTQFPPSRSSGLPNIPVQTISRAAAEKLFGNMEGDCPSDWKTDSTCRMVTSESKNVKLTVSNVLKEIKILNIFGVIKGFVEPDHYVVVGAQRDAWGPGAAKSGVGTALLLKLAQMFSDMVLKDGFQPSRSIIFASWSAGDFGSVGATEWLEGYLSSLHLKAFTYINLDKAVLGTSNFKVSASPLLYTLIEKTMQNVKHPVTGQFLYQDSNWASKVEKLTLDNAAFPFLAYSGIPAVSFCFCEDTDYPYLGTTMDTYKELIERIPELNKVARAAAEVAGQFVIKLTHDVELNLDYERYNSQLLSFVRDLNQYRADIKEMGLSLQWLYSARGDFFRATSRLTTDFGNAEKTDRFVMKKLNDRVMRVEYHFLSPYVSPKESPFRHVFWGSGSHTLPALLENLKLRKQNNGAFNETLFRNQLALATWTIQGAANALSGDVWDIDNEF

Row | hCD71:HSA | Binder
1 | 65 | B1
2 | 319 | B2
3 | 224 | B3
4 | 13 | B4
5 | 36 | B5
6 | 39 | B6
7 | 257 | B7
8 | 173 | B8
9 | 66 | B9
10 | 158 | B10
11 | 246 | B11
12 | 275 | B12
13 | 163 | B13
14 | 32 | B14
15 | 273 | B15
16 | 84 | B16
17 | 192 | B17
18 | 65 | B18
19 | 77 | B19
20 | 243 | B20
21 | 94 | B21
22 | 240 | B22

What follows are binders tested against T2, apical domain of cynomolgus CD71 (cynomolgus, UniProt A0A2K5X958 189-383) (assay: primary ELISA, signal ratio to HSA).
T2 construct: domain: apical domain; also called Cyno apical domain
T2 sequence (A0A2K5X958 entry or part of it): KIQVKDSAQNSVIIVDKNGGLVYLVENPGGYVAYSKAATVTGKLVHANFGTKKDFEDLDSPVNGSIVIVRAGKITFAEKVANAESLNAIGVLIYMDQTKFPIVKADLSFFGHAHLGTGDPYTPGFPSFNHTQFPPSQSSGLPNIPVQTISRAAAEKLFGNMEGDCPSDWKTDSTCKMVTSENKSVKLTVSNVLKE

Row | Cyno apical domain:HSA | Binder
23 | 95 | B1
24 | 272 | B2
25 | 232 | B3
26 | 14 | B4
27 | 66 | B5
28 | 45 | B6
29 | 218 | B7
30 | 208 | B8
31 | 83 | B9
32 | 196 | B10
33 | 275 | B11
34 | 251 | B12
35 | 199 | B13
36 | 39 | B14
37 | 298 | B15
38 | 116 | B16
39 | 245 | B17
40 | 225 | B18
41 | 149 | B19
42 | 325 | B20
43 | 142 | B21
44 | 296 | B22

These binders were tested against T1, human CD71 extracellular domain (assay: primary ELISA; note: test concentration or dose not given here).

Row | RLU | Binder
45 | 3.57e+06 RLU | B1
46 | 7.01e+06 RLU | B2
47 | 5.86e+06 RLU | B3
48 | 5.73e+06 RLU | B4
49 | 3.4e+06 RLU | B5
50 | 4.11e+06 RLU | B6
51 | 7.03e+06 RLU | B7
52 | 5.56e+06 RLU | B8
53 | 4.72e+06 RLU | B9
54 | 5.14e+06 RLU | B10
55 | 5.91e+06 RLU | B11
56 | 6.68e+06 RLU | B12
57 | 5.72e+06 RLU | B13
58 | 3.94e+06 RLU | B14
59 | 4.08e+06 RLU | B15
60 | 3.62e+06 RLU | B16
61 | 4.52e+06 RLU | B17
62 | 1.5e+06 RLU | B18
63 | 2.42e+06 RLU | B19
64 | 4.09e+06 RLU | B20
65 | 2.91e+06 RLU | B21
66 | 4.46e+06 RLU | B22

Each binder was assayed against T2, apical domain of cynomolgus CD71 (assay: primary ELISA; note: test concentration or dose not given here).

Row | RLU | Binder
67 | 5.27e+06 RLU | B1
68 | 5.99e+06 RLU | B2
69 | 6.07e+06 RLU | B3
70 | 6.09e+06 RLU | B4
71 | 6.23e+06 RLU | B5
72 | 4.71e+06 RLU | B6
73 | 5.96e+06 RLU | B7
74 | 6.67e+06 RLU | B8
75 | 5.93e+06 RLU | B9
76 | 6.36e+06 RLU | B10
77 | 6.59e+06 RLU | B11
78 | 6.09e+06 RLU | B12
79 | 7.01e+06 RLU | B13
80 | 4.84e+06 RLU | B14
81 | 4.46e+06 RLU | B15
82 | 4.95e+06 RLU | B16
83 | 5.77e+06 RLU | B17
84 | 5.14e+06 RLU | B18
85 | 4.72e+06 RLU | B19
86 | 5.46e+06 RLU | B20
87 | 4.41e+06 RLU | B21
88 | 5.49e+06 RLU | B22

These binders were tested against T3, human CD71 extracellular domain (CD71-ECD) (human, UniProt P02786 89-760) (assay: primary ELISA, RLU ratio to HSA).
T3 construct: also called hCD71; human CD71-ECD
T3 sequence (P02786 89-760): as the sequence (P02786 89-760) above

Row | hCD71:HSA | Binder
89 | 376 | B23
90 | 535 | B24
91 | 101 | B25

What follows are binders tested against T3, human CD71 extracellular domain … (assay: primary ELISA; note: test concentration or dose not given here).

Row | RLU | Binder
92 | 3.8e+06 RLU | B23
93 | 3.98e+06 RLU | B24
94 | 3.29e+06 RLU | B25
